In patent publication US8969060B2, “Modified glucose dehydrogenase” (Ikeda Food Research Co., Ltd., priority 2011, dated 2015):
Several values for one entry are separate records, joined by “and”; a condition that tells them apart may be missing. Equal entries are not always repeated.

How the values were obtained:
[1] = Relative enzymatic activity of GLD (DCIP/1-m-PMS, plate reader, yeast culture supernatant) with 1,10-phenanthroline present; format: biochemical; settings: site-specific mutants, inhibitor final concentration 1 mM
Outline: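 Yeast transformants grown in YPD, 30° C., 24 h; diluted culture supernatant assayed in phosphate buffer pH 7.0 with D-glucose, DCIP and 1-m-PMS, DCIP absorbance change at 600 nm. Relative activity (%) = activity with 1 mM 1,10-phenanthroline (final, replacing methanol) divided by activity without it.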

[2] = Relative enzymatic activity of GLD (DCIP/1-m-PMS, plate reader, yeast culture supernatant) with proflavin hydrochloride present; format: biochemical; settings: site-specific mutants, inhibitor final concentration 1 mM
Outline: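 Culture supernatant diluted and mixed with reagent of phosphate buffer pH 7.0, 1.0 M D-glucose, 3 mM DCIP, 3 mM 1-m-PMS and methanol (0.1:1:0.14:0.2:0.06). DCIP absorbance decrease at 600 nm followed; proflavin hydrochloride in methanol replaced methanol at 1 mM final. Activity expressed as % of inhibitor-free blank.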

| Molecule | Relative Activity [%] 1,10-Phenanthroline [1] | Relative Activity [%] Proflavin hydrochloride [2] |
| --- | --- | --- |
| F432K: modified GLD: SEQ ID NO: 1 with substitution F432K (protein, listed as Aspergillus terreus, SIGNAL (1)..(19)) MLGKLSFLSALSLAVAAPLSNSTSAKYDYIVIGGGTSGLAVANRLSEDPNVNVLILEAGGSVWNNPNVTNVDGYGLAFGSDIDWQYQSVNQPYGGNLSQVLRAGKALGGTSTINGMAYTRAEDVQIDAWETIGNTGWTWKNLFPYYRKSENFTVPTKSQTSLGASYEAGAHGHEGPLDVAFTQIESNNLTTYLNRTFQGMGLPWTEDVNGGKMRGFNLYPSTVNLEEYVREDAARAYYWPYKSRPNLHVLLNTFANRIVWDGEAHDGHITASGVEITSRNGTVRVINAEKEVIVSAGALKSPAILELSGIGNPSVLDKHNIPVKVNLPTVGENLQDQVNSHMDASGNTSISGTKAVSYPDVYDVFGDEAESVAKQIRANLKQYAADTAKANGNIMKAADLERLFEVQYDLIFKGRVPIAEVLNYPGSATSVKAEFWALLPFARGSVHIGSSNPAEFPVINPNYFMLDWDAKSYVAVAKYIRRSFESYPLSSIVKESTPGYDVIPRNASEQSWKEWVFDKNYRSNFHPVGTAAMMPREIGGVVDERLNVYGTTNVRVVDASVLPFQVCGHLVSTLYAVAERAADLIKADAGRR | 92.1% | 79.3% |
| F432M: modified GLD: SEQ ID NO: 1 with substitution F432M (protein, listed as Aspergillus terreus, SIGNAL (1)..(19)) MLGKLSFLSALSLAVAAPLSNSTSAKYDYIVIGGGTSGLAVANRLSEDPNVNVLILEAGGSVWNNPNVTNVDGYGLAFGSDIDWQYQSVNQPYGGNLSQVLRAGKALGGTSTINGMAYTRAEDVQIDAWETIGNTGWTWKNLFPYYRKSENFTVPTKSQTSLGASYEAGAHGHEGPLDVAFTQIESNNLTTYLNRTFQGMGLPWTEDVNGGKMRGFNLYPSTVNLEEYVREDAARAYYWPYKSRPNLHVLLNTFANRIVWDGEAHDGHITASGVEITSRNGTVRVINAEKEVIVSAGALKSPAILELSGIGNPSVLDKHNIPVKVNLPTVGENLQDQVNSHMDASGNTSISGTKAVSYPDVYDVFGDEAESVAKQIRANLKQYAADTAKANGNIMKAADLERLFEVQYDLIFKGRVPIAEVLNYPGSATSVMAEFWALLPFARGSVHIGSSNPAEFPVINPNYFMLDWDAKSYVAVAKYIRRSFESYPLSSIVKESTPGYDVIPRNASEQSWKEWVFDKNYRSNFHPVGTAAMMPREIGGVVDERLNVYGTTNVRVVDASVLPFQVCGHLVSTLYAVAERAADLIKADAGRR | 62.5% and 74.2% | 71.1% and 66.1% |
| G426C: modified GLD: SEQ ID NO: 1 with substitution G426C (protein, listed as Aspergillus terreus, SIGNAL (1)..(19)) MLGKLSFLSALSLAVAAPLSNSTSAKYDYIVIGGGTSGLAVANRLSEDPNVNVLILEAGGSVWNNPNVTNVDGYGLAFGSDIDWQYQSVNQPYGGNLSQVLRAGKALGGTSTINGMAYTRAEDVQIDAWETIGNTGWTWKNLFPYYRKSENFTVPTKSQTSLGASYEAGAHGHEGPLDVAFTQIESNNLTTYLNRTFQGMGLPWTEDVNGGKMRGFNLYPSTVNLEEYVREDAARAYYWPYKSRPNLHVLLNTFANRIVWDGEAHDGHITASGVEITSRNGTVRVINAEKEVIVSAGALKSPAILELSGIGNPSVLDKHNIPVKVNLPTVGENLQDQVNSHMDASGNTSISGTKAVSYPDVYDVFGDEAESVAKQIRANLKQYAADTAKANGNIMKAADLERLFEVQYDLIFKGRVPIAEVLNYPCSATSVFAEFWALLPFARGSVHIGSSNPAEFPVINPNYFMLDWDAKSYVAVAKYIRRSFESYPLSSIVKESTPGYDVIPRNASEQSWKEWVFDKNYRSNFHPVGTAAMMPREIGGVVDERLNVYGTTNVRVVDASVLPFQVCGHLVSTLYAVAERAADLIKADAGRR | 78.0% | 64.1% |
| F432R: modified GLD: SEQ ID NO: 1 with substitution F432R (protein, listed as Aspergillus terreus, SIGNAL (1)..(19)) MLGKLSFLSALSLAVAAPLSNSTSAKYDYIVIGGGTSGLAVANRLSEDPNVNVLILEAGGSVWNNPNVTNVDGYGLAFGSDIDWQYQSVNQPYGGNLSQVLRAGKALGGTSTINGMAYTRAEDVQIDAWETIGNTGWTWKNLFPYYRKSENFTVPTKSQTSLGASYEAGAHGHEGPLDVAFTQIESNNLTTYLNRTFQGMGLPWTEDVNGGKMRGFNLYPSTVNLEEYVREDAARAYYWPYKSRPNLHVLLNTFANRIVWDGEAHDGHITASGVEITSRNGTVRVINAEKEVIVSAGALKSPAILELSGIGNPSVLDKHNIPVKVNLPTVGENLQDQVNSHMDASGNTSISGTKAVSYPDVYDVFGDEAESVAKQIRANLKQYAADTAKANGNIMKAADLERLFEVQYDLIFKGRVPIAEVLNYPGSATSVRAEFWALLPFARGSVHIGSSNPAEFPVINPNYFMLDWDAKSYVAVAKYIRRSFESYPLSSIVKESTPGYDVIPRNASEQSWKEWVFDKNYRSNFHPVGTAAMMPREIGGVVDERLNVYGTTNVRVVDASVLPFQVCGHLVSTLYAVAERAADLIKADAGRR | 86.2% and 94.2% | 73.7% and 72.6% |
| F432Q: modified GLD: SEQ ID NO: 1 with substitution F432Q (protein, listed as Aspergillus terreus, SIGNAL (1)..(19)) MLGKLSFLSALSLAVAAPLSNSTSAKYDYIVIGGGTSGLAVANRLSEDPNVNVLILEAGGSVWNNPNVTNVDGYGLAFGSDIDWQYQSVNQPYGGNLSQVLRAGKALGGTSTINGMAYTRAEDVQIDAWETIGNTGWTWKNLFPYYRKSENFTVPTKSQTSLGASYEAGAHGHEGPLDVAFTQIESNNLTTYLNRTFQGMGLPWTEDVNGGKMRGFNLYPSTVNLEEYVREDAARAYYWPYKSRPNLHVLLNTFANRIVWDGEAHDGHITASGVEITSRNGTVRVINAEKEVIVSAGALKSPAILELSGIGNPSVLDKHNIPVKVNLPTVGENLQDQVNSHMDASGNTSISGTKAVSYPDVYDVFGDEAESVAKQIRANLKQYAADTAKANGNIMKAADLERLFEVQYDLIFKGRVPIAEVLNYPGSATSVQAEFWALLPFARGSVHIGSSNPAEFPVINPNYFMLDWDAKSYVAVAKYIRRSFESYPLSSIVKESTPGYDVIPRNASEQSWKEWVFDKNYRSNFHPVGTAAMMPREIGGVVDERLNVYGTTNVRVVDASVLPFQVCGHLVSTLYAVAERAADLIKADAGRR | 59.3% | 67.3% |
| G426A: modified GLD: SEQ ID NO: 1 with substitution G426A (protein, listed as Aspergillus terreus, SIGNAL (1)..(19)) MLGKLSFLSALSLAVAAPLSNSTSAKYDYIVIGGGTSGLAVANRLSEDPNVNVLILEAGGSVWNNPNVTNVDGYGLAFGSDIDWQYQSVNQPYGGNLSQVLRAGKALGGTSTINGMAYTRAEDVQIDAWETIGNTGWTWKNLFPYYRKSENFTVPTKSQTSLGASYEAGAHGHEGPLDVAFTQIESNNLTTYLNRTFQGMGLPWTEDVNGGKMRGFNLYPSTVNLEEYVREDAARAYYWPYKSRPNLHVLLNTFANRIVWDGEAHDGHITASGVEITSRNGTVRVINAEKEVIVSAGALKSPAILELSGIGNPSVLDKHNIPVKVNLPTVGENLQDQVNSHMDASGNTSISGTKAVSYPDVYDVFGDEAESVAKQIRANLKQYAADTAKANGNIMKAADLERLFEVQYDLIFKGRVPIAEVLNYPASATSVFAEFWALLPFARGSVHIGSSNPAEFPVINPNYFMLDWDAKSYVAVAKYIRRSFESYPLSSIVKESTPGYDVIPRNASEQSWKEWVFDKNYRSNFHPVGTAAMMPREIGGVVDERLNVYGTTNVRVVDASVLPFQVCGHLVSTLYAVAERAADLIKADAGRR | 68.7% | 51.2% |
